Experimental data as given in patent US20080113421A1, “Stabilizing proteins against denaturation and inactivation by charged detergents using chemical modifications, including modifications that increase net charge” (President and Fellows of Harvard College, priority 2006, published 2008).

Assay: Unfolding (denaturation) of protein in SDS in Tris-Gly buffer, monitored by DNSA fluorescence
Format: physicochemical
Procedure: Monitoring unfolding of BCA and BCA-Ac18 was performed as follows. The proteins (200 nM) were incubated in different concentrations of SDS in Tris-Gly buffer. A 100 microliter aliquot of protein-SDS solution was mixed with 100 microliters of DNSA solution (30 micromolar) with the same concentration of SDS, and measured the intensity of fluorescence (Perkin-Elmer LS50B spectrometer, λex=280 nm, λem=460 nm) as a function of time. The denaturation of BCA was continuously monitored in concentrations of SDS above 4 mM. The rate constants were determined for denaturation by fitting the intensity vs. time data to FU=FUmaxe^−kt+FUmin. Unfolding experiments at 37° C. were performed similarly, with samples stored in a dry bath incubator (Fisher Scientific).
The kinetics of unfolding were determined as follows. The rates of denaturation of BCA and BCA-Ac18 were measured by incubating the protein (200 nM) in solutions of different concentrations of SDS. Immediately prior to the measurement, an aliquot of solution containing protein and SDS was mixed with a solution containing DNSA and the same concentration of SDS; this protocol minimized the possibility that DNSA might stabilize the native conformation of the protein, and influence the rate of its denaturation. When BCA was denatured in concentrations of SDS of 4 mM and higher, DNSA was added to the original, denaturing solution because the rate of denaturation was too fast to follow with manual mixing of aliquots of protein and DNSA. It was observed that DNSA, when present with the protein in the denaturing solution, reduced the rates of denaturation by factors of about 2-10.
FIG. 1 plots the fluorescence of DNSA, normalized to the signal at t=0, as a function of time of incubation of samples of BCA and BCA-Ac18 in various concentrations of SDS. The decrease in the intensity of fluorescence of DNSA, and thus in the amount of folded protein, followed first-order kinetics. Denaturation of proteins with surfactants probably proceeds through intermediates, but when using a marker that is specific to the folded active site of carbonic anhydrase, transitions beyond the initial unfolding of the three-dimensional structure of the protein were not detected.
The tables list the half-lives (t1/2) for denaturation of BCA and BCA-Ac18 at several concentrations of SDS. The denaturation of BCA at 4 mM occurred very rapidly, and data are not shown to avoid overlap with data at 3.5 mM. The error bars represent the difference between the average and the largest and smallest values measured from at least three replicate measurements.

With bovine carbonic anhydrase II [BCA] the t1/2 for denaturation (4 mM SDS, Tris-Gly buffer, with DNSA present during denaturation) was 15 s, the t1/2 for denaturation (10 mM SDS, Tris-Gly buffer) was under 5 s and the “denaturation in low concentrations of SDS” value (SDS below 2 mM, long (~1 month) periods of time) was “no denaturation”. The “concentration of SDS at which the protein denatures” value (Tris-Gly buffer, CMC 4.3 mM) was at least 2500 µM.
